# Data from patent US20210122814A1.
# Legend:
# [1] = target: Cell-associated proTGFβ1 (hGARP-proTGFβ1 and hLRRC33-proTGFβ1); assay: BLI (Octet); Cell AVRG over ECM AVRG
# [2] = target: Matrix-associated proTGFβ1 (hLTBP1-proTGFβ1 and hLTBP3-proTGFβ1); assay: BLI (Octet)
# [3] = target: Cell-associated proTGFβ1 (hGARP-proTGFβ1 and hLRRC33-proTGFβ1); assay: BLI (Octet)
# [4] = target: Matrix-associated proTGFβ1 (hLTBP1-proTGFβ1 and hLTBP3-proTGFβ1); assay: MSD-SET, hIgG4
# [5] = target: Cell-associated proTGFβ1 (hGARP-proTGFβ1 and hLRRC33-proTGFβ1); assay: MSD-SET, hIgG4
# [6] = target: Cell-associated proTGFβ1 (hGARP-proTGFβ1 and hLRRC33-proTGFβ1); assay: MSD-SET, hIgG4; Cell AVRG over ECM AVRG
Binder,G/D (fold bias) [1] [fold],ECM AVRG (average KD) [2] [nM],Cell AVRG (average KD) [3] [nM],ECM AVRG (average KD) [4] [nM],Cell AVRG (average KD) [5] [nM],G/D (fold bias) [6] [fold]
"Ab21 (antibody, V domains shown) VH: EVQLVESGGGLVQPGGSLRLSCAASGFTFSSFSMDWVRQAPGKGLEWVSYISPDASTIYYADSVKGRFTISRDNAKNSLYLQMNSLRAEDTAVYYCARGVLDYGDMLDPWGQGTLVTVSS VL: DIQMTQSPSSLSASVGDRVTITCQASQDITNYLNWYQQKPGKAPKLLIYDASNLETGVPSRFSGSGSGTDFTFTISSLQPEDIATYYCQQADNHPPWTFGGGTKVEIK",2.61,0.246,0.644,,,
"Ab22 (antibody, V domains shown) VH: EVQLVESGGGLVQPGGSLRLSCAASGFTFGSFSMNWVRQAPGKGLEWVSYIHSDASTIYYADSVKGRFTISRDNAKNSLYLQMNSLRAEDTAVYYCARGVLDYGDMLDPWGQGTLVTVSS VL: DIQMTQSPSSLSASVGDRVTITCQASQDITNYLNWYQQKPGKAPKLLIYDASNLETGVPSRFSGSGSGTDFTFTISSLQPEDIATYYCQQADNHPPWTFGGGTKVEIK",2.15,0.324,0.695,0.042,0.114,2.71
"Ab28 (antibody, V domains shown) VH: EVQLVESGGGLVQPGGSLRLSCAASGFTFSSFSMDWVRQAPGKGLEWVSYISPDASTIYYADSVKGRFTISRDNAKNSLYLQMNSLRAEDTAVYYCVRGVLDYGDMLDPWGQGTLVTVSS VL: DIQMTQSPSSLSASVGDRVTITCQASQDITNYLNWYQQKPGKAPKLLIYDASNLETGVPSRFSGSGSGTDFTFTISSLQPEDIATYYCQQADNHPPWTFGGGTKVEIK",1.84,0.328,0.603,,,
"Ab26 (antibody, V domains shown) VH: EVQLVESGGGLVQPGGSLRLSCAASGFTFSSFSMDWVRQAPGKGLEWVSYISPDASTIYYADSVKGRFTISRDNAKNTLYLQMNSLRAEDTAVYYCARGVLDYGDMLDPWGQGTLVTVSS VL: DIQMTQSPSSLSASVGDRVTITCQASQDITNYLNWYQQKPGKAPKLLIYDASNLETGVPSRFSGSGSGTDFTFTISSLQPEDIATYYCQQADNHPPWTFGGGTKVEIK",2.5,0.197,0.492,0.026,0.072,2.77
"Ab32 (antibody, V domains shown) VH: EVQLVESGGGLVQPGGSLRLSCAASGFTFSSFSMNWVRQAPGKGLEWVSYISPSADTIYYADSVKGRFTISRDNAKNTLYLQMNSLRAEDTAVYYCARGVWDMGDMLDPWGQGTLVTVSS VL: DIQMTQSPSSLSASVGDRVTITCQASQDITNYLNWYQQKPGKAPKLLIYDASNLETGVPSRFSGSGSGTDFTFTISSLQPEDIATYYCQQADNHPPWTFGGGTKVEIK",2.47,0.242,0.597,0.032,0.051,1.6
"Ab4 (antibody, IgG4, V domains shown) VH: EVQLVESGGGLVQPGGSLRLSCAASGFTFSSYSMNWVRQAPGKGLEWVSYISSSSSTIYYADSVKGRFTISRDNAKNSLYLQMNSLRAEDTAVYYCARGVLDYGDMLDPWGQGTLVTVSS VL: DIQMTQSPSSLSASVGDRVTITCQASQDITNYLNWYQQKPGKAPKLLIYDASNLETGVPSRFSGSGSGTDFTFTISSLQPEDIATYYCQQADNHPPWTFGGGTKVEIK",,,,5.05,2.3,0.42
"Ab23 (antibody, V domains shown) VH: EVQLVESGGGLVQPGGSLRLSCAASGFTFSSFSMNWVRQAPGKGLEWVSYISPSADTIYYADSVKGRFTISRDNAKNTLYLQMNSLRAEDTAVYYCARGVLDYGDMLDPWGQGTLVTVSS VL: DIQMTQSPSSLSASVGDRVTITCQASQDITNYLNWYQQKPGKAPKLLIYDASNLETGVPSRFSGSGSGTDFTFTISSLQPEDIATYYCQQADNHPPWTFGGGTKVEIK",2.03,0.443,0.897,,,
"Ab29 (antibody, V domains shown) VH: EVQLVESGGGLVQPGRSLRLSCAASGFTFSSFAMNWVRQAPGKGLEWVSYISPDASTIYYAGSVKGRFTISRDNAKNSLYLQMNSLRAEDTAVYYCVRAVLDYGDMLDPWGQGTLVTVSS VL: DIQMTQSPSSLSASVGDRVTITCQASQDITNYLNWYQQKPGKAPKLLIYDASNLETGVPSRFSGSGSGTDFTFTISSLQPEDIATYYCQQADNHPPWTFGGGTKVEIK",1.97,0.155,0.304,0.012,0.024,2
"Ab30 (antibody, V domains shown) VH: EVQLVESGGGLVQPGGSLRLSCAASGFTFSSFSMDWVRQAPGKGLEWVSYISPDASTIYYADSVKGRFTISRDNAKNSLYLQMNSLRAEDTAVYYCARGTLDYGDMLDPWGQGTLVTVSS VL: DIQMTQSPSSLSASVGDRVTITCQASQDITNYLNWYQQKPGKAPKLLIYDASNLETGVPSRFSGSGSGTDFTFTISSLQPEDIATYYCQQADNHPPWTFGGGTKVEIK",2.31,0.296,0.684,0.029,0.081,2.8
"Ab31 (antibody, V domains shown) VH: EVQLVESGGGLVQPGGSLRLSCAASGFTFSSFSMDWVRQAPGKGLEWVSYISPDASTIYYADSVKGRFTISRDNAKNTLYLQMNSLRAEDTAVYYCARAVLDYGDMLDPWGQGTLVTVSS VL: DIQMTQSPSSLSASVGDRVTITCQASQDITNYLNWYQQKPGKAPKLLIYDASNLETGVPSRFSGSGSGTDFTFTISSLQPEDIATYYCQQADNHPPWTFGGGTKVEIK",2.38,0.208,0.495,0.017,0.058,3.41

# Continued, values first:
G/D (fold bias) [1] [fold],ECM AVRG (average KD) [2] [nM],Cell AVRG (average KD) [3] [nM],ECM AVRG (average KD) [4] [nM],Cell AVRG (average KD) [5] [nM],G/D (fold bias) [6] [fold],Binder
2.43,0.184,0.449,,,,"Ab25 (antibody, V domains shown) VH: EVQLVESGGGLVQPGGSLRLSCAASGFTFGSFSMDWVRQAPGKGLEWVSYISPDASTIYYADSVKGRFTISRDNAKNSLYLQMNSLRAEDTAVYYCARGVLDYGDMLDPWGQGTLVTVSS VL: DIQMTQSPSSLSASVGDRVTITCQASQDITNYLNWYQQKPGKAPKLLIYDASNLETGVPSRFSGSGSGTDFTFTISSLQPEDIATYYCQQADNHPPWTFGGGTKVEIK"
2.42,0.222,0.537,0.023,0.1,4.35,"Ab24 (antibody, V domains shown) VH: EVQLVESGGGLVQPGRSLRLSCAASGFTFSSFAMYWVRQAPGKGLEWVSYISPDASTIYYADSVKGRFTISRDNAKNSLYLQMNSLRAEDTAVYYCARGVLDYGDMLDPWGQGTLVTVSS VL: DIQMTQSPSSLSASVGDRVTITCQASQDITNYLNWYQQKPGKAPKLLIYDASNLETGVPSRFSGSGSGTDFTFTISSLQPEDIATYYCQQADNHPPWTFGGGTKVEIK"
2.08,0.145,0.302,0.009,0.027,3,"Ab33 (antibody, V domains shown) VH: EVQLVESGGGLVQPGGSLRLSCAASGFTFSSFSMNWVRQAPGKGLEWVSYISPSADTIYYADSVKGRFTISRDNAKNTLYLQMNSLRAEDTAVYYCAHGVLDYGDMLDPWGQGTLVTVSS VL: DIQMTQSPSSLSASVGDRVTITCQASQDITNYLNWYQQKPGKAPKLLIYDASNLETGVPSRFSGSGSGTDFTFTISSLQPEDIATYYCQQADNHPPWTFGGGTKVEIK"
1.74,0.208,0.361,,,,"Ab27 (antibody, V domains shown) VH: EVQLVESGGGLVQPGGSLRLSCAASGFTFSFYAMNWVRQAPGKGLEWVSYISPDASTIYYADSVKGRFTISRDNAKNSLYLQMNSLRAEDTAVYYCARGVLDYGDMLDPWGQGTLVTVSS VL: DIQMTQSPSSLSASVGDRVTITCQASQDITNYLNWYQQKPGKAPKLLIYDASNLETGVPSRFSGSGSGTDFTFTISSLQPEDIATYYCQQADNHPPWTFGGGTKVEIK"
